Residue numbers refer to the chain shown, from its start.

For three molecules, Kd, koff and kon results are on record in patent CN111018977A (DONGGUAN PENGZHI BIOTECHNOLOGY CO LTD, dated 2020).

The target in this assay is T1, CTNI质控品重组抗原 (人心肌肌钙蛋白I, cTnI) (human, UniProt P19429 1-210, limits assumed).
T1 construct: also called CTNI质控品重组蛋白
Kind of assay: AMC sensor (biolayer interferometry), antibody immobilised at 10 ug/ml, cTnI QC recombinant protein in serial dilution in PBST. In general terms: In BLI a coated tip is dipped into the sample, and binding shifts an interference pattern.

T1 sequence (P19429 whole entry): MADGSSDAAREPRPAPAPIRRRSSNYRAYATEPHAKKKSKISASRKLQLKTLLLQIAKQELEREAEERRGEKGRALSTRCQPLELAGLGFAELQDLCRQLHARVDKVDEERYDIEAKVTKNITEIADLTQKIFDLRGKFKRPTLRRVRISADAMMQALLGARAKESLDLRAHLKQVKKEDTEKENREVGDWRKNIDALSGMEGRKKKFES

B1: WT 1-1 (antibody, V domains shown)
VH: QVQLQQSGTELAKPGASVKFSCKASDYTFSTYWMYWIKQRPGQGLEWIGYINPSTGHTEYNQKFKDKATLTADKSSSTAYMQLNSLTSEDSAVYYCARRYYGPFAMDYWGQGTSVTVSS
VL: EIFLTQSPAIMSASPGEKVTMTCSASSSVSYAHWYQQKSGTSPKRWIYDSSKIASGIPVRFSGSGSGTSYSLTISSMEAEDAATYYCQNWSTNPYTFGGGTKLEIKR
Usually Kd stands for the equilibrium constant for the complex coming apart. What is called koff is the rate constant with which the complex falls apart. The term kon denotes a measure of how fast the partners come together. On to B1, for which the Kd turned out to be 1.43 nM, the koff worked out at 5.51e-05 s⁻¹ and the kon came out at 38500 M⁻¹ s⁻¹.

B2: WT 1-4 (antibody, V domains shown)
VH: B1 VH with T55S, K63R, R99K
VL: B1 VL with S27T, S28T, I47L
B2: the Kd worked out at 1.04 nM, the koff turned out to be 3.9e-05 s⁻¹ and the kon was determined as 37500 M⁻¹ s⁻¹.

B3: WT 1-7 (antibody, V domains shown)
VH: B1 VH with S30T, I51L
VL: B1 VL with S27T, I53L
Take B3: the Kd was found to be 0.728 nM, the koff amounted to 0.000132 s⁻¹ and the kon is 182000 M⁻¹ s⁻¹.
